Target: FLAG-tagged RHOA (UniProt P61586)
Assay: co-IP

Sequence of UniProt P61586 (P61586 whole entry): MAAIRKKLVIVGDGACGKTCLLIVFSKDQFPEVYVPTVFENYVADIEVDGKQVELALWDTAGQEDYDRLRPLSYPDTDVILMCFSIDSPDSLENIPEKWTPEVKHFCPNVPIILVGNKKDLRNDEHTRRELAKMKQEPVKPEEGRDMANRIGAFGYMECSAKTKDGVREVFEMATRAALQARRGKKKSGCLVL

## DAAM1-ΔDAD without microexon (-MIC) (domain or fragment)
  decrease of the co-IP signal against the +MIC construct: 40%

— paper PMC12056172
